T1: Placenta Growth Factor (PlGF), human (human, UniProt P49763 21-149)
T1 chain: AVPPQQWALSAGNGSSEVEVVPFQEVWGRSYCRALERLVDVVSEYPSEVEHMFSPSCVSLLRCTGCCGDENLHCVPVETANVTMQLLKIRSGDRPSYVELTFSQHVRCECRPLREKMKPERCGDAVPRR


Assays:
[1] = biological target: Hepatocyte Growth Factor (HGF), human (human, UniProt P14210 32-728); experiment: ELISA
[2] = biological target: T1, Placenta Growth Factor (PlGF), human; experiment: ELISA

Chain of Hepatocyte Growth Factor (HGF), human (P14210 32-728): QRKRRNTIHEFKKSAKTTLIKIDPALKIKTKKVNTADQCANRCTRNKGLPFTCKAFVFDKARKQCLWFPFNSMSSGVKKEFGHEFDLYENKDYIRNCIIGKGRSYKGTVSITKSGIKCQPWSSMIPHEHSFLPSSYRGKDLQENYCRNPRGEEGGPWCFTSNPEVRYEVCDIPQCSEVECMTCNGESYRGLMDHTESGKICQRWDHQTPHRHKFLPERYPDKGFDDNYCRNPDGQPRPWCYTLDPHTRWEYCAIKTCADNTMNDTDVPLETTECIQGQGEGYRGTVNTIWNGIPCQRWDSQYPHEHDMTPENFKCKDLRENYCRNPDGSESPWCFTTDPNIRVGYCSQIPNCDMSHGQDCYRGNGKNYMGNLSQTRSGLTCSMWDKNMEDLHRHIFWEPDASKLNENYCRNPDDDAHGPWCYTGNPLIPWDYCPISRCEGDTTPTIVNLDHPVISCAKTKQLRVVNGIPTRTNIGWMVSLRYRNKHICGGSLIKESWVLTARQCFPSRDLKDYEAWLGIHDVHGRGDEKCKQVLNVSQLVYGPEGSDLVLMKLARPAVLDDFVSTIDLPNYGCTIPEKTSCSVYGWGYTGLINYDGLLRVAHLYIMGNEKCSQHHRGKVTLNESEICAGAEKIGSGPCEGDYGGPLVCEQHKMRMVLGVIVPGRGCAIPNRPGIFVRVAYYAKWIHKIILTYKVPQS

Binder | EC50 [1] | EC50 [2]
HC 3/SLC 3 (antibody) chain 1: GQGTLVTVSSASTQPVLHQPPAMSSALGTTIRLTCTLRNDHDIGVYSVYWYQQRPGHPPRFLLRYFSQSDKSQGPQVPPRFSGSKDVARNRGYLSISELQPEDEAMYYCAMGARSRCWPRGFQSKHNSVTHVFGSGTQLTVLSQPKATPSVTLFPPSSEELQANKATLVCLMNDFYPGILTVTWKADGTPITQGVEMTTPSKQSNNKYAASSYLSLTPEQWRSRRSYSCQVMHEGSTVEKTVAPAECS chain 2: MSWAPVLLMLFVYCTGCGPQPVLHQPPAMSSALGTTIRLTCTLRNDHDIGVYSVYWYQQRPGHPPRFLLRYFSQSDKSQGPQVPPRFSGSKDVARNRGYLSISVTHVFGSGTQLTVLSQPQVQLVQ | 55 pM | 135 pM
HC 6/SLC 6 (antibody) chain 1: GQGTLVTVSSASTKGPQPVLHQPPAMSSALGTTIRLTCTLRNDHDIGVYSVYWYQQRPGHPPRFLLRYFSQSDKSQGPQVPPRFSGSKDVARNRGYLSISELQPEDEAMYYCAMGARSRCWPRGFQSKHNSVTHVFGSGTQLTVLSQPKATPSVTLFPPSSEELQANKATLVCLMNDFYPGILTVTWKADGTPITQGVEMTTPSKQSNNKYAASSYLSLTPEQWRSRRSYSCQVMHEGSTVEKTVAPAECS chain 2: MSWAPVLLMLFVYCTGCGPQPVLHQPPAMSSALGTTIRLTCTLRNDHDIGVYSVYWYQQRPGHPPRFLLRYFSQSDKSQGPQVPPRFSGSKDVARNRGYLSISVTHVFGSGTQLTVLSQPKATQVQLVQ | 61 pM | 139 pM
HC 8/SLC 3 (antibody) chain 1: GQGTLVTVSSASTKGPSVQPVLHQPPAMSSALGTTIRLTCTLRNDHDIGVYSVYWYQQRPGHPPRFLLRYFSQSDKSQGPQVPPRFSGSKDVARNRGYLSISELQPEDEAMYYCAMGARSRCWPRGFQSKHNSVTHVFGSGTQLTVLSQPKATPSVTLFPPSSEELQANKATLVCLMNDFYPGILTVTWKADGTPITQGVEMTTPSKQSNNKYAASSYLSLTPEQWRSRRSYSCQVMHEGSTVEKTVAPAECS chain 2: MSWAPVLLMLFVYCTGCGPQPVLHQPPAMSSALGTTIRLTCTLRNDHDIGVYSVYWYQQRPGHPPRFLLRYFSQSDKSQGPQVPPRFSGSKDVARNRGYLSISVTHVFGSGTQLTVLSQPQVQLVQ | 71 pM | 196 pM
HC 3/SLC 2 (antibody) chain 1: GQGTLVTVSSASTQPVLHQPPAMSSALGTTIRLTCTLRNDHDIGVYSVYWYQQRPGHPPRFLLRYFSQSDKSQGPQVPPRFSGSKDVARNRGYLSISELQPEDEAMYYCAMGARSRCWPRGFQSKHNSVTHVFGSGTQLTVLSQPKATPSVTLFPPSSEELQANKATLVCLMNDFYPGILTVTWKADGTPITQGVEMTTPSKQSNNKYAASSYLSLTPEQWRSRRSYSCQVMHEGSTVEKTVAPAECS chain 2: MSWAPVLLMLFVYCTGCGPQPVLHQPPAMSSALGTTIRLTCTLRNDHDIGVYSVYWYQQRPGHPPRFLLRYFSQSDKSQGPQVPPRFSGSKDVARNRGYLSISVTHVFGSGTQLTVLSQQVQLVQ | 53 pM | 163 pM
HC 8/SLC 7 (antibody) chain 1: GQGTLVTVSSASTKGPSVQPVLHQPPAMSSALGTTIRLTCTLRNDHDIGVYSVYWYQQRPGHPPRFLLRYFSQSDKSQGPQVPPRFSGSKDVARNRGYLSISELQPEDEAMYYCAMGARSRCWPRGFQSKHNSVTHVFGSGTQLTVLSQPKATPSVTLFPPSSEELQANKATLVCLMNDFYPGILTVTWKADGTPITQGVEMTTPSKQSNNKYAASSYLSLTPEQWRSRRSYSCQVMHEGSTVEKTVAPAECS chain 2: MSWAPVLLMLFVYCTGCGPQPVLHQPPAMSSALGTTIRLTCTLRNDHDIGVYSVYWYQQRPGHPPRFLLRYFSQSDKSQGPQVPPRFSGSKDVARNRGYLSISVTHVFGSGTQLTVLSQPKATPQVQLVQ | 58 pM | 85 pM
HC 10/SLC 15 (antibody) chain 1: GQGTLVTVSSASTKGPSVFPQPVLHQPPAMSSALGTTIRLTCTLRNDHDIGVYSVYWYQQRPGHPPRFLLRYFSQSDKSQGPQVPPRFSGSKDVARNRGYLSISELQPEDEAMYYCAMGARSRCWPRGFQSKHNSVTHVFGSGTQLTVLSQPKATPSVTLFPPSSEELQANKATLVCLMNDFYPGILTVTWKADGTPITQGVEMTTPSKQSNNKYAASSYLSLTPEQWRSRRSYSCQVMHEGSTVEKTVAPAECS chain 2: MSWAPVLLMLFVYCTGCGPQPVLHQPPAMSSALGTTIRLTCTLRNDHDIGVYSVYWYQQRPGHPPRFLLRYFSQSDKSQGPQVPPRFSGSKDVARNRGYLSISVTHVFGSGTQLTVLSQPKATPSVTGGGGSQVQLVQ | 54 pM | 49 pM
HC 4/SLC 2 (antibody) chain 1: GQGTLVTVSSASTKQPVLHQPPAMSSALGTTIRLTCTLRNDHDIGVYSVYWYQQRPGHPPRFLLRYFSQSDKSQGPQVPPRFSGSKDVARNRGYLSISELQPEDEAMYYCAMGARSRCWPRGFQSKHNSVTHVFGSGTQLTVLSQPKATPSVTLFPPSSEELQANKATLVCLMNDFYPGILTVTWKADGTPITQGVEMTTPSKQSNNKYAASSYLSLTPEQWRSRRSYSCQVMHEGSTVEKTVAPAECS chain 2: MSWAPVLLMLFVYCTGCGPQPVLHQPPAMSSALGTTIRLTCTLRNDHDIGVYSVYWYQQRPGHPPRFLLRYFSQSDKSQGPQVPPRFSGSKDVARNRGYLSISVTHVFGSGTQLTVLSQQVQLVQ | 53 pM | 188 pM
HC 6/SLC 3 (antibody) chain 1: GQGTLVTVSSASTKGPQPVLHQPPAMSSALGTTIRLTCTLRNDHDIGVYSVYWYQQRPGHPPRFLLRYFSQSDKSQGPQVPPRFSGSKDVARNRGYLSISELQPEDEAMYYCAMGARSRCWPRGFQSKHNSVTHVFGSGTQLTVLSQPKATPSVTLFPPSSEELQANKATLVCLMNDFYPGILTVTWKADGTPITQGVEMTTPSKQSNNKYAASSYLSLTPEQWRSRRSYSCQVMHEGSTVEKTVAPAECS chain 2: MSWAPVLLMLFVYCTGCGPQPVLHQPPAMSSALGTTIRLTCTLRNDHDIGVYSVYWYQQRPGHPPRFLLRYFSQSDKSQGPQVPPRFSGSKDVARNRGYLSISVTHVFGSGTQLTVLSQPQVQLVQ | 69 pM | 160 pM
HC 8/SLC 6 (antibody) chain 1: GQGTLVTVSSASTKGPSVQPVLHQPPAMSSALGTTIRLTCTLRNDHDIGVYSVYWYQQRPGHPPRFLLRYFSQSDKSQGPQVPPRFSGSKDVARNRGYLSISELQPEDEAMYYCAMGARSRCWPRGFQSKHNSVTHVFGSGTQLTVLSQPKATPSVTLFPPSSEELQANKATLVCLMNDFYPGILTVTWKADGTPITQGVEMTTPSKQSNNKYAASSYLSLTPEQWRSRRSYSCQVMHEGSTVEKTVAPAECS chain 2: MSWAPVLLMLFVYCTGCGPQPVLHQPPAMSSALGTTIRLTCTLRNDHDIGVYSVYWYQQRPGHPPRFLLRYFSQSDKSQGPQVPPRFSGSKDVARNRGYLSISVTHVFGSGTQLTVLSQPKATQVQLVQ | 61 pM | 128 pM
HC 10/SLC 5 (antibody) chain 1: GQGTLVTVSSASTKGPSVFPQPVLHQPPAMSSALGTTIRLTCTLRNDHDIGVYSVYWYQQRPGHPPRFLLRYFSQSDKSQGPQVPPRFSGSKDVARNRGYLSISELQPEDEAMYYCAMGARSRCWPRGFQSKHNSVTHVFGSGTQLTVLSQPKATPSVTLFPPSSEELQANKATLVCLMNDFYPGILTVTWKADGTPITQGVEMTTPSKQSNNKYAASSYLSLTPEQWRSRRSYSCQVMHEGSTVEKTVAPAECS chain 2: MSWAPVLLMLFVYCTGCGPQPVLHQPPAMSSALGTTIRLTCTLRNDHDIGVYSVYWYQQRPGHPPRFLLRYFSQSDKSQGPQVPPRFSGSKDVARNRGYLSISVTHVFGSGTQLTVLSQPKAQVQLVQ | 61 pM | 181 pM
HC 8/SLC 15 (antibody) chain 1: GQGTLVTVSSASTKGPSVQPVLHQPPAMSSALGTTIRLTCTLRNDHDIGVYSVYWYQQRPGHPPRFLLRYFSQSDKSQGPQVPPRFSGSKDVARNRGYLSISELQPEDEAMYYCAMGARSRCWPRGFQSKHNSVTHVFGSGTQLTVLSQPKATPSVTLFPPSSEELQANKATLVCLMNDFYPGILTVTWKADGTPITQGVEMTTPSKQSNNKYAASSYLSLTPEQWRSRRSYSCQVMHEGSTVEKTVAPAECS chain 2: MSWAPVLLMLFVYCTGCGPQPVLHQPPAMSSALGTTIRLTCTLRNDHDIGVYSVYWYQQRPGHPPRFLLRYFSQSDKSQGPQVPPRFSGSKDVARNRGYLSISVTHVFGSGTQLTVLSQPKATPSVTGGGGSQVQLVQ | 48 pM | 50 pM
HC 6/SLC 7 (antibody) chain 1: GQGTLVTVSSASTKGPQPVLHQPPAMSSALGTTIRLTCTLRNDHDIGVYSVYWYQQRPGHPPRFLLRYFSQSDKSQGPQVPPRFSGSKDVARNRGYLSISELQPEDEAMYYCAMGARSRCWPRGFQSKHNSVTHVFGSGTQLTVLSQPKATPSVTLFPPSSEELQANKATLVCLMNDFYPGILTVTWKADGTPITQGVEMTTPSKQSNNKYAASSYLSLTPEQWRSRRSYSCQVMHEGSTVEKTVAPAECS chain 2: MSWAPVLLMLFVYCTGCGPQPVLHQPPAMSSALGTTIRLTCTLRNDHDIGVYSVYWYQQRPGHPPRFLLRYFSQSDKSQGPQVPPRFSGSKDVARNRGYLSISVTHVFGSGTQLTVLSQPKATPQVQLVQ | 56 pM | 83 pM
HC 9/SLC 3 (antibody) chain 1: GQGTLVTVSSASTKGPSVFQPVLHQPPAMSSALGTTIRLTCTLRNDHDIGVYSVYWYQQRPGHPPRFLLRYFSQSDKSQGPQVPPRFSGSKDVARNRGYLSISELQPEDEAMYYCAMGARSRCWPRGFQSKHNSVTHVFGSGTQLTVLSQPKATPSVTLFPPSSEELQANKATLVCLMNDFYPGILTVTWKADGTPITQGVEMTTPSKQSNNKYAASSYLSLTPEQWRSRRSYSCQVMHEGSTVEKTVAPAECS chain 2: MSWAPVLLMLFVYCTGCGPQPVLHQPPAMSSALGTTIRLTCTLRNDHDIGVYSVYWYQQRPGHPPRFLLRYFSQSDKSQGPQVPPRFSGSKDVARNRGYLSISVTHVFGSGTQLTVLSQPQVQLVQ | 78 pM | 136 pM
HC 4/SLC 3 (antibody) chain 1: GQGTLVTVSSASTKQPVLHQPPAMSSALGTTIRLTCTLRNDHDIGVYSVYWYQQRPGHPPRFLLRYFSQSDKSQGPQVPPRFSGSKDVARNRGYLSISELQPEDEAMYYCAMGARSRCWPRGFQSKHNSVTHVFGSGTQLTVLSQPKATPSVTLFPPSSEELQANKATLVCLMNDFYPGILTVTWKADGTPITQGVEMTTPSKQSNNKYAASSYLSLTPEQWRSRRSYSCQVMHEGSTVEKTVAPAECS chain 2: MSWAPVLLMLFVYCTGCGPQPVLHQPPAMSSALGTTIRLTCTLRNDHDIGVYSVYWYQQRPGHPPRFLLRYFSQSDKSQGPQVPPRFSGSKDVARNRGYLSISVTHVFGSGTQLTVLSQPQVQLVQ | 60 pM | 147 pM
